Columns and labels:
[1] = biological target: histone H1 present on surfaces of apoptotic cells (apoptotic SNU16 human stomach cancer cells) (human) (UniProt P07305); assay: flow cytometry, FITC-peptide on SNU16 cells treated with cetuximab alone for 24 h
[2] = biological target: histone H1 present on surfaces of apoptotic cells (apoptotic SNU16 human stomach cancer cells) (human) (UniProt P07305); assay: flow cytometry, FITC-peptide on SNU16 cells treated with cisplatin alone for 24 h
[3] = biological target: histone H1 present on surfaces of apoptotic cells (apoptotic SNU16 human stomach cancer cells) (human) (UniProt P07305); assay: flow cytometry, FITC-peptide on SNU16 cells treated with cisplatin and cetuximab in combination for 24 h

| percentage of apoptotic cells detected (peptide-bound fluorescent cells) [1] [%] | percentage of apoptotic cells detected (peptide-bound fluorescent cells) [2] [%] | percentage of apoptotic cells detected (peptide-bound fluorescent cells) [3] [%] | Substance |
| --- | --- | --- | --- |
| 25 | 28 | 34 | linear form of ApoPep-1 (CQRPPR) (peptide) |
| 49 | 56 | 78 | cyclic form of ApoPep-1 (cyclo[Cys-Gln-Arg-Pro-Pro-Arg-Cys] peptide) |
